Experimental data as given in paper doi:10.1101/2021.10.05.463282 (2021).

B1: B8-mIgA1 (antibody, V domains shown)
VH: EVQLVQSGAEVKKPGSSVKVSCKASGGTFSNYGISWVRQAPGQGLEWMGRILPTFGTANSAQKFQGRVTITADESTGTAYMELRSLRSEDTAVYYCAKEGLAFLGYGMDVWGQGTTVTVSS
VL: EIVLTQSPGTLSLSPGERATLSCRASQSVSSYLAWYQQKPGQAPRLLIYDASNRATGIPARFIGSGSGTDFTLTISSLEPEDFAVYFCQQRSNWPLTFGGGTKVEIK
B2: B8-mIgA2 (antibody, V domains shown)
VH: EVQLVQSGAEVKKPGSSVKVSCKASGGTFSNYGISWVRQAPGQGLEWMGRILPTFGTANSAQKFQGRVTITADESTGTAYMELRSLRSEDTAVYYCAKEGLAFLGYGMDVWGQGTTVTVSS
VL: EIVLTQSPGTLSLSPGERATLSCRASQSVSSYLAWYQQKPGQAPRLLIYDASNRATGIPARFIGSGSGTDFTLTISSLEPEDFAVYFCQQRSNWPLTFGGGTKVEIK
B3: B8-dIgA1 (antibody, V domains shown)
VH: EVQLVQSGAEVKKPGSSVKVSCKASGGTFSNYGISWVRQAPGQGLEWMGRILPTFGTANSAQKFQGRVTITADESTGTAYMELRSLRSEDTAVYYCAKEGLAFLGYGMDVWGQGTTVTVSS
VL: EIVLTQSPGTLSLSPGERATLSCRASQSVSSYLAWYQQKPGQAPRLLIYDASNRATGIPARFIGSGSGTDFTLTISSLEPEDFAVYFCQQRSNWPLTFGGGTKVEIK
B4: B8-dIgA2 (antibody, V domains shown)
VH: EVQLVQSGAEVKKPGSSVKVSCKASGGTFSNYGISWVRQAPGQGLEWMGRILPTFGTANSAQKFQGRVTITADESTGTAYMELRSLRSEDTAVYYCAKEGLAFLGYGMDVWGQGTTVTVSS
VL: EIVLTQSPGTLSLSPGERATLSCRASQSVSSYLAWYQQKPGQAPRLLIYDASNRATGIPARFIGSGSGTDFTLTISSLEPEDFAVYFCQQRSNWPLTFGGGTKVEIK
B5: B8-IgG1 (antibody, V domains shown)
VH: EVQLVQSGAEVKKPGSSVKVSCKASGGTFSNYGISWVRQAPGQGLEWMGRILPTFGTANSAQKFQGRVTITADESTGTAYMELRSLRSEDTAVYYCAKEGLAFLGYGMDVWGQGTTVTVSS
VL: EIVLTQSPGTLSLSPGERATLSCRASQSVSSYLAWYQQKPGQAPRLLIYDASNRATGIPARFIGSGSGTDFTLTISSLEPEDFAVYFCQQRSNWPLTFGGGTKVEIK
B6: B8 Fab (Fab, V domains shown)
VH: EVQLVQSGAEVKKPGSSVKVSCKASGGTFSNYGISWVRQAPGQGLEWMGRILPTFGTANSAQKFQGRVTITADESTGTAYMELRSLRSEDTAVYYCAKEGLAFLGYGMDVWGQGTTVTVSS
VL: EIVLTQSPGTLSLSPGERATLSCRASQSVSSYLAWYQQKPGQAPRLLIYDASNRATGIPARFIGSGSGTDFTLTISSLEPEDFAVYFCQQRSNWPLTFGGGTKVEIK

target: recombinant trimeric spike protein derived from SARS-CoV-2 (Sino Biological) (SARS-CoV-2, ancestral (Wuhan-Hu-1) …, UniProt P0DTC2); test: ELISA

Binder | binding result
B1 | binds
B2 | binds
B3 | binds
B4 | binds
B5 | binds

target: SARS-CoV-2 spike ectodomain trimer (SARS-CoV-2, ancestral (Wuhan-Hu-1) …, UniProt P0DTC2); test: cryo-EM structure

Binder | binding result
B6 | binds
